Among the data in patent US20050255104A1 are IL-6 secreted by FS-4 fibroblasts, 0.3 ng/ml rhTNF with 4 µg/ml antibody, IL-6 secreted by FS-4 fibroblasts, 1.5 ng/ml rhTNF with 4 µg/ml antibody and IL-6 secreted by FS-4 fibroblasts, 7.5 ng/ml rhTNF with 4 µg/ml antibody values, retold here.

The target in this assay is human tumor necrosis factor-α (TNFα) (human) (UniProt P01375). The experiment in a line: cell-based or functional assay.
Chain of human tumor necrosis factor-α (TNFα) (human) (P01375 77-233 limits assumed): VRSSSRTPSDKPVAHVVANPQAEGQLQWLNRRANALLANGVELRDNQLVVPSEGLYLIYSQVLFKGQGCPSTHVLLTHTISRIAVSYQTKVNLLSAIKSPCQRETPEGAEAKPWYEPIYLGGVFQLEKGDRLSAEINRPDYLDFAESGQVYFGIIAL

B1: chimeric mouse/human IgG1 anti-platelet mAb (7E3) (antibody, INN chains, looked up, V domains shown)
VH: EVQLQQSGTVLARPGASVKMSCEASGYTFTNYWMHWVKQRPGQGLEWIGAIYPGNSDTSYIQKFKGKAKLTAVTSTTSVYMELSSLTNEDSAVYYCTLYDGYYVFAYWGQGTLVTVSA
VL: EIVLTQSPVTLSVTPGDSVSLSCRASRDISNNLHWFQQTSHESPRLLIKYASQSMSGIPSRFSGSGSGTDFTLSINSVETEDFGMYFCQQTNSWPYTFGGGTKLEIK
modifications: full IgG1
B1 registered an IL-6 secreted by FS-4 fibroblasts, 0.3 ng/ml rhTNF with 4 µg/ml antibody of 1.6 ng/mL; an IL-6 secreted by FS-4 fibroblasts, 1.5 ng/ml rhTNF with 4 µg/ml antibody of 1.96 ng/mL; an IL-6 secreted by FS-4 fibroblasts, 7.5 ng/ml rhTNF with 4 µg/ml antibody of 2.16 ng/mL.
